Reference: paper PMC11821514 (Nature Cell Biology, 2025)

T1: GST–Atg11^685–1178 (budding yeast, UniProt Q12527 685-1178)
T1 construct: also called C-terminal fragment of Atg11; not shown: GST, N-terminal, kept
T1 sequence (looked up): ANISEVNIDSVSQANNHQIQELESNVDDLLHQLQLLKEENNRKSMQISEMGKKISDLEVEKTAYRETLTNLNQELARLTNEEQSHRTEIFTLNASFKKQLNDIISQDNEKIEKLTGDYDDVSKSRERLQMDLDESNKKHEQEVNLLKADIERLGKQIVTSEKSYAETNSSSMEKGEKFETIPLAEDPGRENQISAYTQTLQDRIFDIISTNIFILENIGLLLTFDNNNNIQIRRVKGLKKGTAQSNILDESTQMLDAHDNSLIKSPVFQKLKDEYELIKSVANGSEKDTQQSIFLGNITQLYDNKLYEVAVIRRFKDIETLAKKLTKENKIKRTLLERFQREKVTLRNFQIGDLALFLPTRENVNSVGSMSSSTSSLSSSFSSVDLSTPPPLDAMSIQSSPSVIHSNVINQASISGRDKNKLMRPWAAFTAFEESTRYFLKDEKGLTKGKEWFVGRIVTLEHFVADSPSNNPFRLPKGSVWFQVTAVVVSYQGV

T2: StrepII–GFP–Atg11 (budding yeast, UniProt Q12527 1-1178)
T2 construct: Atg11, budding yeast; the ATG11 ORF was subcloned with an N-terminal StrepII–GFP tag into a pLIB vector; Used as preformed condensates (20 min at room temperature in 20 mM HEPES pH 7.5, 150 mM NaCl, 5 mM DTT); also called GFP–Atg11 condensates; GFP–Atg11 droplets; source: Sf9 insect cells, baculovirus, purified (Strep-TactinXT); not shown: GFP, N-terminal, kept
T2 sequence (looked up): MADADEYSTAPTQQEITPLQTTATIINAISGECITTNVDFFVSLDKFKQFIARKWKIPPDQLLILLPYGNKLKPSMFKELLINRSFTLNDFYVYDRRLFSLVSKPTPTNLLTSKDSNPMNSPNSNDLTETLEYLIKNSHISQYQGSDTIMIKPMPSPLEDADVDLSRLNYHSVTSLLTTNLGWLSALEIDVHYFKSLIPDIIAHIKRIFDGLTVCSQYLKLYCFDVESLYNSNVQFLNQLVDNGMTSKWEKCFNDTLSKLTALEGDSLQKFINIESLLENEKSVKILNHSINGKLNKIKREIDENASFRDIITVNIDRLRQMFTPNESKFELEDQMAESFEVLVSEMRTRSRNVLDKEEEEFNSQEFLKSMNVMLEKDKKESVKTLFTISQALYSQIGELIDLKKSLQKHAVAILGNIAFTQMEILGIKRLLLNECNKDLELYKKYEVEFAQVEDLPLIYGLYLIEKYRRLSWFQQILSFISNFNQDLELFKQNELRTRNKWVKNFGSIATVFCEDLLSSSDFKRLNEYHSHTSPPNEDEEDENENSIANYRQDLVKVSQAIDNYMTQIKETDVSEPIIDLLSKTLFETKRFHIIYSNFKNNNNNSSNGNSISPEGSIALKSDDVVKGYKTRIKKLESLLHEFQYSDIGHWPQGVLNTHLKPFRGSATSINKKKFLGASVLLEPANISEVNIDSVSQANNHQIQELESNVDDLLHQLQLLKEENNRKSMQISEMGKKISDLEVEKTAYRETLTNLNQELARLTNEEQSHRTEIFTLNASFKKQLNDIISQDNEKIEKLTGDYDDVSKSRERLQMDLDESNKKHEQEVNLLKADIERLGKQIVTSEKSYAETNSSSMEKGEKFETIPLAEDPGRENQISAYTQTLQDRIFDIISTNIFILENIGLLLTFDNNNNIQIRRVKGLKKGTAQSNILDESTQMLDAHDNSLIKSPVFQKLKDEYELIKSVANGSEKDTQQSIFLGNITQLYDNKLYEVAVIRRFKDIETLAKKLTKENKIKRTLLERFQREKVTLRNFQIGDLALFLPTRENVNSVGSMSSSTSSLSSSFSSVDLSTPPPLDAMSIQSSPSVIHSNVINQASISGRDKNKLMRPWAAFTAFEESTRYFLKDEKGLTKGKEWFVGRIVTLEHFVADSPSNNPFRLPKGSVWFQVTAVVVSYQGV

B1: Atg19^3D (natural protein, budding yeast, UniProt P35193 1-415, looked up)
chain: MNNSKTNQQMNTSMGYPLTVYDECNKFQLIVPTLDANIMLWCIGQLSLLNDSNGCKHLFWQPNDKSNVRILLNNYDYGHLFKYLQCQRKCSVYIGEGTLKKYNLTISTSFDNFLDLTPSEEKESLCREDAHEDPVSPKAGSEEEISPNSTSNVVVSRECLDNFMKQLLKLEESLNKLELEQKVTNKEPNHRISGTIDIPEDRSELVNFFTELKTVKQLEDVFQRYHDYERLSQECDSKTEIASDHSKKETKIEVEPPNERSLQITMNQRDNSLYFQLFNNTNSVLAGNCKLKFTDAGDKPTTQIIDMGPHEIGIKEYKEYRYFPYALDLEAGSTIEIENQYGEVIFLGKYGSSPMINLRPPSRLSAESLQASQEPFYSFQIDTLPELDDDDIISTDISLSYDGDDNEKALTWEEL
notes: Atg19, budding yeast, phospho-mimetic mutant S390D, S391D, S396D; also called purified recombinant Atg19^3D; source: E. coli BL21(DE3), expressed as GST–Atg19^3D from pGEX-4T.1, purified (GSH beads, thrombin elution, Superdex200); not shown: GST, N-terminal, cleaved
B2: GST–mTagBFP–Atg19^3D (natural protein, budding yeast, UniProt P35193 1-415, looked up)
chain: MNNSKTNQQMNTSMGYPLTVYDECNKFQLIVPTLDANIMLWCIGQLSLLNDSNGCKHLFWQPNDKSNVRILLNNYDYGHLFKYLQCQRKCSVYIGEGTLKKYNLTISTSFDNFLDLTPSEEKESLCREDAHEDPVSPKAGSEEEISPNSTSNVVVSRECLDNFMKQLLKLEESLNKLELEQKVTNKEPNHRISGTIDIPEDRSELVNFFTELKTVKQLEDVFQRYHDYERLSQECDSKTEIASDHSKKETKIEVEPPNERSLQITMNQRDNSLYFQLFNNTNSVLAGNCKLKFTDAGDKPTTQIIDMGPHEIGIKEYKEYRYFPYALDLEAGSTIEIENQYGEVIFLGKYGSSPMINLRPPSRLSAESLQASQEPFYSFQIDTLPELDDDDIISTDISLSYDGDDNEKALTWEEL
notes: Atg19, budding yeast, phospho-mimetic mutant S390D, S391D, S396D; also called GST–BFP–Atg19^3D; Atg19^3D-decorated beads; not shown: GST, N-terminal, kept; mTagBFP, N-terminal, kept
B3: GST–BFP–Vac8 (natural protein, budding yeast, UniProt P39968 1-578, looked up)
chain: MGSCCSCLKDSSDEASVSPIADNEREAVTLLLGYLEDKDQLDFYSGGPLKALTTLVYSDNLNLQRSAALAFAEITEKYVRQVSREVLEPILILLQSQDPQIQVAACAALGNLAVNNENKLLIVEMGGLEPLINQMMGDNVEVQCNAVGCITNLATRDDNKHKIATSGALIPLTKLAKSKHIRVQRNATGALLNMTHSEENRKELVNAGAVPVLVSLLSSTDPDVQYYCTTALSNIAVDEANRKKLAQTEPRLVSKLVSLMDSPSSRVKCQATLALRNLASDTSYQLEIVRAGGLPHLVKLIQSDSIPLVLASVACIRNISIHPLNEGLIVDAGFLKPLVRLLDYKDSEEIQCHAVSTLRNLAASSEKNRKEFFESGAVEKCKELALDSPVSVQSEISACFAILALADVSKLDLLEANILDALIPMTFSQNQEVSGNAAAALANLCSRVNNYTKIIEAWDRPNEGIRGFLIRFLKSDYATFEHIALWTILQLLESHNDKVEDLVKNDDDIINGVRKMADVTFERLQRSGIDVKNPGSNNNPSSNDNNSNNNDTGSEHQPVEDASLELYNITQQILQFLH
notes: Vac8, vacuolar membrane protein, budding yeast; The results text says GST–Vac8, the legend GST–BFP–Vac8; also called GST–Vac8; recombinant GST–Vac8; not shown: GST, N-terminal, kept; BFP, N-terminal, kept

Assays:
GST–Atg11^685–1178 = target: T1, GST–Atg11^685–1178; assay: pull-down; GST fusions on GSH beads incubated with purified recombinant Atg19^3D, 20 min at room temperature; six washes with GST-wash buffer containing 0.02% Tween-20; immunoblotting; settings: both partners purified
StrepII–GFP–Atg11 = target: T2, StrepII–GFP–Atg11; assay: bead binding assay read by fluorescence microscopy; GST–BFP fusion on GSH beads incubated with preformed GFP–Atg11 condensates (purified by the methods and results, Sf9 lysate by the legends), 20 min at room temperature; imaged before and after eight washes with 20 mM HEPES pH 7.5, 150 mM NaCl, 5 mM DTT; settings: both partners purified

| Binder | binding result (GST–Atg11^685–1178) | binding result (StrepII–GFP–Atg11) |
| --- | --- | --- |
| B1 | binds | – |
| B2 | – | binds |
| B3 | – | binds |
